# Measured values taken from article PMC8028696 (Journal of Molecular Biology, 2021).
# B1: IgG 15046 (antibody, V domains shown)
# VH: EVQLVESGGGLVQPGGSLRLSCAASGFDFGSYAMHWVRQAPGKGLEWVAGIYASGGYTDYADSVKGRFTISADTSKNTAYLQMNSLRAEDTAVYYCARGWSYYWGFDYWGQGTLVTVSS
# VL: DIQMTQSPSSLSASVGDRVTITCRASQSVSSAVAWYQQKPGKAPKLLIYSASSLYSGVPSRFSGSRSGTDFTLTISSLQPEDFATYYCQQYDYGLFTFGQGTKVEIK
# B2: IgG 15036 (antibody, V domains shown)
# VH: EVQLVESGGGLVQPGGSLRLSCAASGFDFTAYDIHWVRQAPGKGLEWVAGISASGGYTAYADSVKGRFTISADTSKNTAYLQMNSLRAEDTAVYYCARDGFHSYALDYWGQGTLVTVSS
# VL: DIQMTQSPSSLSASVGDRVTITCRASQSVSSAVAWYQQKPGKAPKLLIYSASSLYSGVPSRFSGSRSGTDFTLTISSLQPEDFATYYCQQWYSLFTFGQGTKVEIK
# Biological target: SARS-CoV-2 RBD (SARS-CoV-2 (P0DTC2 reference)); strain …, UniProt P0DTC2, biotin (site-specific, BirA, on the AviTag))
# Assay: BLI
row,Binder,Kd [nM]
1,B1,3.7 ± 0.1
2,B2,2.2 ± 0.2
